We go through two variants from IntAct's records for PubMed 24105263.

B1: Vesicle-associated membrane protein-associated protein A (Homo sapiens), Q9P0L0 (parent)
chain: MASASGAMAKHEQILVLDPPTDLKFKGPFTDVVTTNLKLRNPSDRKVCFKVKTTAPRRYCVRPNSGIIDPGSTVTVSVMLQPFDYDPNEKSKHKFMVQTIFAPPNTSDMEAVWKEAKPDELMDSKLRCVFEMPNENDKLNDMEPSKAVPLNASKQDGPMPKPHSVSLNDTETRKLMEECKRLQGEMMKLSEENRHLRDEGLRLRKVAHSDKPGSTSTASFRDNVTSPLPSLLVVIAAIFIGFFLGKFIL
partner: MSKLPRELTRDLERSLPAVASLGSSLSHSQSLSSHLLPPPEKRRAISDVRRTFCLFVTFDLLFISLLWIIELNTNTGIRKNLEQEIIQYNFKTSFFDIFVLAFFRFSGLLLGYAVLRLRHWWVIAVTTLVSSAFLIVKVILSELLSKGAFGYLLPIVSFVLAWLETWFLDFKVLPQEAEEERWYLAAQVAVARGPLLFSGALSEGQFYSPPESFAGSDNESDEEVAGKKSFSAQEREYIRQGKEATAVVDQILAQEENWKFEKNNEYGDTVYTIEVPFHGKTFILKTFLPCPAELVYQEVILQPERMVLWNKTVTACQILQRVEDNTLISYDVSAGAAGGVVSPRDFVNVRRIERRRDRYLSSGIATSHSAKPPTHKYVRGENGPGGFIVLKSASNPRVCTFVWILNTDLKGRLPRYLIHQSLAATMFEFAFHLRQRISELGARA
B2: Vesicle-associated membrane protein-associated protein A (Homo sapiens), Q9P0L0 (parent)
chain: B1 chain
partner: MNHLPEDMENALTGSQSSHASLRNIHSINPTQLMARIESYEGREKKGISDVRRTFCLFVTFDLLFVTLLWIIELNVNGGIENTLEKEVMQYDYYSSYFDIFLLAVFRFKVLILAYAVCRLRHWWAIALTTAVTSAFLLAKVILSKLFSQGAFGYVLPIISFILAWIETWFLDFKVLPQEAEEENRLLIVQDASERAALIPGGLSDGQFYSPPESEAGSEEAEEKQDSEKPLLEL

The variants in the first assay derive from B1. To be noted: with STARD3, Q14849-1.
For K94D;M96D, the “effect of a mutation on the interaction” value is recorded as “decreasing interaction strength”.

Variants of B2 are the subject of the next assay. To be noted: with STARD3NL.
With K94D;M96D, the “effect of a mutation on the interaction” value is “decreasing interaction strength”.
